Substitutions are numbered along the chain they refer to.
B1: Antibody A-3 (antibody, human IgG1, kappa)
heavy: QVQLLQSGAAVTKPGASVRVSCEASGYNIRDYFIHWWRQAPGQGLQWVGWINPKTGQPNNPRQFQGRVSLTRHASWDFDTFSFYMDLKALRSDDTAVYFCARQRSDYWDFDVWGSGTQVTVSSASTKGPSVFPLAPSSKSTSGGTAALGCLVKDYFPEPVTVSWNSGALTSGVHTFPAVLQSSGLYSLSSVVTVPSSSLGTQTYICNVNHKPSNTKVDKKVEPKSCDKTHTCPPCPAPELLGGPDVFLFPPKPKDTLMISRTPEVTCVVVDVSHEDPEVKFNWYVDGVEVHNAKTKPREEQYNSTYRVVSVLTVLHQDWLNGKEYKCKVSNKALPAPEEKTISKAKGQPREPQVYTLPPSREEMTKNQVSLTCLVKGFYPSDIAVEWESNGQPENNYKTTPPVLDSDGSFFLYSKLTVDKSRWQQGNVFSCSVLHEALHSHYTQKSLSLSPGK
light: DIQMTQSPSSLSASVGDTVTITCQANGYLNWYQQRRGKAPKLLIYDGSKLERGVPSRFSGRRWGQEYNLTINNLQPEDIATYFCQVYEFVVPGTRLDLKRTVAAPSVFIFPPSDEQLKSGTASVVCLLNNFYPREAKVQWKVDNALQSGNSQESVTEQDSKDSTYSLSSTLTLSKADYEKHKVYACEVTHQGLSSPVTKSFNRGEC
B2: Antibody A-4 (antibody, human IgG1, kappa)
heavy: B1 heavy with G242A
light: B1 light
B3: Antibody A-2 (antibody, human IgG1, kappa)
heavy: B1 heavy with G242A, A336L, L434M, S440N
light: B1 light
B4: Antibody A-5 (antibody, human IgG1, kappa)
heavy: B1 heavy with A336L
light: B1 light
B5: Antibody A-6 (antibody, human IgG1, kappa)
heavy: B1 heavy with D245S, F249L, R298P, Y306L, V311I, E338I, P402L
light: B1 light
B6: 1.34.36-1 (antibody, human IgG1, kappa)
heavy: B1 heavy with L5V, A10E, T12K, E23K, S69T, S105T, G242A, A336L
light: DIQMTQSPSSLSASVGDRVTITCQANGYLNWYQQKPGKAPKLLIYDGSNLETGVPSRFSGSRWGQEYTLTISSLQPEDIATYFCQVYEFVTPGTNLDIKRTVAAPSVFIFPPSDEQLKSGTASVVCLLNNFYPREAKVQWKVDNALQSGNSQESVTEQDSKDSTYSLSSTLTLSKADYEKHKVYACEVTHQGLSSPVTKSFNRGEC
B7: 1.32.36-1 (antibody, human IgG1, kappa)
heavy: B1 heavy with L5V, A10E, S105T, G242A, A336L
light: B6 light
B8: 1.31.36-1 (antibody, human IgG1, kappa)
heavy: B1 heavy with L5V, A10E, V97T, G242A, A336L
light: B6 light
B9: 1.33.36-1 (antibody, human IgG1, kappa)
heavy: B1 heavy with L5V, A10E, T12K, E23K, S69T, V97T, G242A, A336L
light: B6 light
B10: 1.35.36-1 (antibody, human IgG1, kappa)
heavy: QVQLVQSGAEVKKPGASVRVSCKASGYNIRDYFMHWWRQAPGQGLQWVGWINPKTGQPNNPRQFQGRVTMTRHASWDFDTFSFYMDLSRLRSDDTATYFCARQRTDYWDFDVWGQGTMVTVSSASTKGPSVFPLAPSSKSTSGGTAALGCLVKDYFPEPVTVSWNSGALTSGVHTFPAVLQSSGLYSLSSVVTVPSSSLGTQTYICNVNHKPSNTKVDKKVEPKSCDKTHTCPPCPAPELLAGPDVFLFPPKPKDTLMISRTPEVTCVVVDVSHEDPEVKFNWYVDGVEVHNAKTKPREEQYNSTYRVVSVLTVLHQDWLNGKEYKCKVSNKALPLPEEKTISKAKGQPREPQVYTLPPSREEMTKNQVSLTCLVKGFYPSDIAVEWESNGQPENNYKTTPPVLDSDGSFFLYSKLTVDKSRWQQGNVFSCSVLHEALHSHYTQKSLSLSPGK
light: B6 light
B11: 1.36.36-1 (antibody, human IgG1, kappa)
heavy: B10 heavy with F83A
light: B6 light

Legend:
[1] = biological target: HIV-1 envelope glycoprotein gp120 of viral isolate 92US657 (HIV-1); test: cell-based or functional assay
[2] = biological target: HIV-1 envelope glycoprotein gp120 of viral isolate 92US712 (HIV-1); test: cell-based or functional assay
[3] = biological target: BSA (UniProt P02769 25-607); test: single-point ELISA, BSA control
[4] = biological target: gp120 SHIV SF162 P3 (SHIV SF162 P3); test: single-point ELISA at EC50 conc. of A-1
[5] = biological target: gp120 Bal (HIV (Bal)); test: single-point ELISA at EC50 conc. of A-1
[6] = biological target: gp120 CAAN (HIV (CAAN)); test: single-point ELISA at EC50 conc. of A-1

| Binder | ADCC EC50, NK Donor 1 [1] [µg/mL] | ADCC EC50, NK Donor 2 [1] [µg/mL] | ADCC EC50, NK Donor 3 [1] [µg/mL] | ADCC Emax, NK Donor 1 [1] [%] | ADCC Emax, NK Donor 2 [1] [%] | ADCC Emax, NK Donor 3 [1] [%] | ADCC EC50, NK Donor 1 [2] [µg/mL] | ADCC EC50, NK Donor 2 [2] [µg/mL] | ADCC EC50, NK Donor 3 [2] [µg/mL] | ADCC Emax, NK Donor 1 [2] [%] | ADCC Emax, NK Donor 2 [2] [%] | ADCC Emax, NK Donor 3 [2] [%] | ELISA A450 [3] [A450] | ELISA A450 [4] [A450] | ELISA A450 [5] [A450] | ELISA A450 [6] [A450] |
| --- | --- | --- | --- | --- | --- | --- | --- | --- | --- | --- | --- | --- | --- | --- | --- | --- |
| B1 | 0.68 | 0.67 | 1.39 | 49 | 49 | 56 | 0.07 | 0.08 | 0.2 | 77 | 59 | 67 | – | – | – | – |
| B2 | 0.6 | 1.21 | 1.64 | 52 | 53 | 50 | 0.2 | 0.13 | 0.4 | 78 | 61 | 64 | – | – | – | – |
| B3 | 0.54 | 0.81 | 1.13 | 59 | 51 | 56 | 0.18 | 0.08 | 0.2 | 76 | 60 | 60 | – | – | – | – |
| B4 | 0.57 | 0.83 | 0.76 | 58 | 61 | 61 | 0.19 | 0.08 | 0.09 | 79 | 61 | 66 | – | – | – | – |
| B5 | 3.93 | 1.21 | 3.21 | 54 | 53 | 52 | 0.27 | 0.54 | 0.18 | 68 | 54 | 51 | – | – | – | – |
| B6 | – | – | – | – | – | – | – | – | – | – | – | – | 0.07 | 0.77 | 0.94 | 0.71 |
| B7 | – | – | – | – | – | – | – | – | – | – | – | – | 0.06 | 0.62 | 0.92 | 0.64 |
| B8 | – | – | – | – | – | – | – | – | – | – | – | – | 0.06 | 0.93 | 1.06 | 0.9 |
| B9 | – | – | – | – | – | – | – | – | – | – | – | – | 0.06 | 0.88 | 0.94 | 0.82 |
| B10 | – | – | – | – | – | – | – | – | – | – | – | – | 0.06 | 0.56 | 0.85 | 0.67 |
| B11 | – | – | – | – | – | – | – | – | – | – | – | – | 0.06 | 0.14 | 1.12 | 0.34 |
